Data taken from article PMC3996161.

Target: DraIII restriction endonuclease (Deinococcus radiophilus ATCC 27603)
Experiment: crystal structure; DraIII incubated 1:1 with an 11-bp phosphorothioate canonical DNA duplex, SEC with 5 mmol/L MgCl2; crystals at 18°C, hanging drop, 0.1 mol/L Tris-Cl, 20% 2-propanol, 5% PEG 8000, pH 8.0; the DNA was not observed in the structure

DraIII restriction endonuclease (enzyme)
stoichiometry N: 2
